Publication PMC9805813 (Biochemistry, 2021)
Numbering of substitutions follows the chain as printed. Names may count otherwise.

Assays:
PaParE1 toxin, wild type = target: T1, PaParE1 toxin, wild type (Pseudomonas aeruginosa, UniProt Q9I708 1-93); test: BLI
T1 sequence: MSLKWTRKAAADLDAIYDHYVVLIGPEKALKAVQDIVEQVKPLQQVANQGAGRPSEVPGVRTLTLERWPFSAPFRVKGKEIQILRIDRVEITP

SEC-MALS = target: the molecule itself; test: SEC-MALS

RQQWQVAAIDEGLADANAGRLLEHIEIEKRWGLQ (domain or fragment) [mCh-ParD1(42-75)]
Kd (PaParE1 toxin, wild type): 0.828 ± 0.55 nM

B1: mCherry fused to full length ParD1 (natural protein, Pseudomonas aeruginosa, UniProt Q9I707 1-75, looked up)
chain: MSTVVSFRADDALVAALDELARATHRDRPYHLRQALAQYLERQQWQVAAIDEGLADANAGRLLEHIEIEKRWGLQ
Kd (PaParE1 toxin, wild type): 0.225 ± 0.0068 nM

B2: PaParD1 antitoxin, wild type, His-tagged (natural protein)
chain: B1 chain
stoichiometry N (SEC-MALS): 2

B3: PaParD1 I68A, His-tagged (natural protein, Pseudomonas aeruginosa, UniProt Q9I707 1-75, looked up)
chain: B1 chain with I68A
stoichiometry N (SEC-MALS): 2
